Biological target: cross-linked CA A14C/E45C/W184A/M185A hexamer (HIV-1)
Test: crystal structure

Sec24C(228–242) peptide (from UniProt P53992-1 228-242)
stoichiometry N (Sec24C(228–242) molecules per CA hexamer): 6

cross-linked CA A14C/E45C/W184A/M185A hexamer (complex)
stoichiometry N: 6

— article PMC8012256
